# From US20200199241A1 (Chugai, published 2020)
# Residue numbers refer to the chain shown, from its start. Numbers in names are those of the source.
# B1: IgG1-F101 (antibody)
# heavy: QVQLQESGPGLVKPSETLSLTCAVSGHSISHDHAWSWVRQPPGEGLEWIGFISYSGITNYNPSLQGRVTISRDNSKNTLYLQMNSLRAEDTAVYYCARSLARTTAMDYWGEGTLVTVSSASTKGPSVFPLAPSSKSTSGGTAALGCLVKDYFPEPVTVSWNSGALTSGVHTFPAVLQSSGLYSLSSVVTVPSSSLGTQTYICNVNHKPSNTKVDKKVEPKSCDKTHTCPPCPAPELLGGPSVFLFPPKPKDTLWISRQLEVTCVVVDVSHEDPEVKFNWYVDGVEVHNAKTKPREEQYNSTYRVVSVLTVLHQDWLNGKEYKCKVSNKALPAPIEKTISKAKGQPREPQVYTLPPSRDELTKNQVSLTCLVKGFYPSDIAVEWESNGQPENNYKTTPPVLDSDGSFFLYSKLTVDKSRWQQGNVFSCSVMHEALHYHYTQKSLSLSP
# light: not shown
# notes: EU numbering; copies: 2 + 2
# B2: IgG1-F176 (antibody)
# heavy: B1 heavy with S241K, Q258T, L259P
# light: not shown
# notes: EU numbering; copies: 2 + 2
# B3: IgG1-F163 (antibody)
# heavy: B1 heavy with Q258T, L259P, M430F
# light: not shown
# notes: EU numbering; copies: 2 + 2
# B4: IgG1-F124 (antibody)
# heavy: B1 heavy with W254Y, Q258E, L259P, M430L
# light: not shown
# notes: EU numbering; copies: 2 + 2
# B5: IgG1-F160 (antibody)
# heavy: B1 heavy with Q258T, L259P, M430I
# light: not shown
# notes: EU numbering; copies: 2 + 2
# B6: IgG1-F123 (antibody)
# heavy: B1 heavy with W254Y, Q258E, L259P, V310P
# light: not shown
# notes: EU numbering; copies: 2 + 2
# B7: IgG1-F168 (antibody)
# heavy: B1 heavy with Q258T, L259P, D378A
# light: not shown
# notes: EU numbering; copies: 2 + 2
# B8: IgG1-F141 (antibody)
# heavy: B1 heavy with W254Y, Q258T, L259P, S300G, V310P
# light: not shown
# notes: EU numbering; copies: 2 + 2
# B9: IgG1-F167 (antibody)
# heavy: B1 heavy with Q258T, L259P, V305A
# light: not shown
# notes: EU numbering; copies: 2 + 2
# B10: IgG1-F177 (antibody)
# heavy: B1 heavy with Q258T, L259P, S300G
# light: not shown
# notes: EU numbering; copies: 2 + 2
# B11: IgG1-F154 (antibody)
# heavy: B1 heavy with W254Y, Q258T, L259P, V310T
# light: not shown
# notes: EU numbering; copies: 2 + 2
# B12: IgG1-F137 (antibody)
# heavy: B1 heavy with W254M, Q258T, L259V, M430L
# light: not shown
# notes: EU numbering; copies: 2 + 2
# B13: IgG1-F143 (antibody)
# heavy: B1 heavy with W254Y, Q258T, L259P, V310A
# light: not shown
# notes: EU numbering; copies: 2 + 2
# B14: IgG1-F122 (antibody)
# heavy: B1 heavy with W254Y, Q258E, L259P, M430L, Y436W
# light: not shown
# notes: EU numbering; copies: 2 + 2
# B15: IgG1-F166 (antibody)
# heavy: B1 heavy with Q258T, L259P, T309Q
# light: not shown
# notes: EU numbering; copies: 2 + 2
# B16: IgG1-F114 (antibody)
# heavy: B1 heavy with W254Y, Q258T, L259P, V310P, S426A
# light: not shown
# notes: EU numbering; copies: 2 + 2
# B17: IgG1-F164 (antibody)
# heavy: B1 heavy with P240A, Q258T, L259P
# light: not shown
# notes: EU numbering; copies: 2 + 2
# B18: IgG1-F132 (antibody)
# heavy: B1 heavy with W254M, Q258T, L259I, M430L
# light: not shown
# notes: EU numbering; copies: 2 + 2
# B19: IgG1-F125 (antibody)
# heavy: B1 heavy with W254Y, S256T, Q258E, L259P, V310P, M430L
# light: not shown
# notes: EU numbering; copies: 2 + 2
# B20: IgG1-F121 (antibody)
# heavy: B1 heavy with W254Y, Q258E, L259P, V310P, M430L, Y436W
# light: not shown
# notes: EU numbering; copies: 2 + 2
# B21: IgG1-F174 (antibody)
# heavy: B1 heavy with Q258T, L259P, E384A
# light: not shown
# notes: EU numbering; copies: 2 + 2
# B22: IgG1-F128 (antibody)
# heavy: B1 heavy with W254M, Q258T, M430L, Y436W
# light: not shown
# notes: EU numbering; copies: 2 + 2
# B23: IgG1-F103 (antibody)
# heavy: B1 heavy with P240A, W254Y, Q258T, L259P, V310P
# light: not shown
# notes: EU numbering; copies: 2 + 2
# B24: IgG1-F169 (antibody)
# heavy: B1 heavy with Q258T, L259P, V307A
# light: not shown
# notes: EU numbering; copies: 2 + 2
# B25: IgG1-F159 (antibody)
# heavy: B1 heavy with W254M, Q258T, L259V, V310P, M430L
# light: not shown
# notes: EU numbering; copies: 2 + 2
# B26: IgG1-F158 (antibody)
# heavy: B1 heavy with W254M, Q258T, L259T, V310P, M430L
# light: not shown
# notes: EU numbering; copies: 2 + 2
# B27: IgG1-F171 (antibody)
# heavy: B1 heavy with Q258T, L259P, D314A
# light: not shown
# notes: EU numbering; copies: 2 + 2
# B28: IgG1-F111 (antibody)
# heavy: B1 heavy with W254Y, Q258T, L259P, V310P, K319A
# light: not shown
# notes: EU numbering; copies: 2 + 2
# B29: IgG1-F175 (antibody)
# heavy: B1 heavy with Q258T, L259P, S426A
# light: not shown
# notes: EU numbering; copies: 2 + 2
# B30: IgG1-F133 (antibody)
# heavy: B1 heavy with W254M, Q258T, L259M, M430L
# light: not shown
# notes: EU numbering; copies: 2 + 2
# B31: IgG1-F120 (antibody)
# heavy: B1 heavy with W254M, Q258T, V310P, M430L
# light: not shown
# notes: EU numbering; copies: 2 + 2
# B32: IgG1-F157 (antibody)
# heavy: B1 heavy with W254M, Q258T, L259A, V310P, M430L
# light: not shown
# notes: copies: 2 + 2
# B33: IgG1-F173 (antibody)
# heavy: B1 heavy with Q258T, L259P, E382A
# light: not shown
# notes: EU numbering; copies: 2 + 2
# B34: IgG1-F131 (antibody)
# heavy: B1 heavy with W254M, Q258T, L259G, M430L
# light: not shown
# notes: EU numbering; copies: 2 + 2
# B35: IgG1-F139 (antibody)
# heavy: B1 heavy with Q258T, L259P, V310P, Y436W
# light: not shown
# notes: EU numbering; copies: 2 + 2
# B36: IgG1-F136 (antibody)
# heavy: B1 heavy with W254M, Q258T, L259T, M430L
# light: not shown
# notes: EU numbering; copies: 2 + 2
# B37: IgG1-F178 (antibody)
# heavy: B1 heavy with Q258T, L259P, D272F
# light: not shown
# notes: EU numbering; copies: 2 + 2
# B38: IgG1-F140 (antibody)
# heavy: B1 heavy with S241K, W254Y, Q258T, L259P, V310P
# light: not shown
# notes: copies: 2 + 2
# B39: IgG1-F105 (antibody)
# heavy: B1 heavy with W254Y, Q258T, L259P, T309A, V310P
# light: not shown
# notes: EU numbering; copies: 2 + 2
# B40: IgG1-F145 (antibody)
# heavy: B1 heavy with W254Y, Q258T, L259P, V310F
# light: not shown
# notes: EU numbering; copies: 2 + 2
# B41: IgG1-F152 (antibody)
# heavy: B1 heavy with W254Y, Q258T, L259P, V310Q
# light: not shown
# notes: EU numbering; copies: 2 + 2
# B42: IgG1-F109 (antibody)
# heavy: B1 heavy with W254Y, Q258T, L259P, V310P, Q313A
# light: not shown
# notes: EU numbering; 'M4252Y' read as M252Y; copies: 2 + 2
# B43: IgG1-F165 (antibody)
# heavy: B1 heavy with Q258T, L259P, D267A
# light: not shown
# notes: EU numbering; copies: 2 + 2
# B44: IgG1-F108 (antibody)
# heavy: B1 heavy with W254Y, Q258T, L259P, V307A, V310P
# light: not shown
# notes: EU numbering; copies: 2 + 2
# B45: IgG1-F149 (antibody)
# heavy: B1 heavy with W254Y, Q258T, L259P, V310L
# light: not shown
# notes: EU numbering; copies: 2 + 2
# B46: IgG1-F129 (antibody)
# heavy: B1 heavy with W254M, Q258T, L259A, M430L
# light: not shown
# notes: EU numbering; copies: 2 + 2
# B47: IgG1-F106 (antibody)
# heavy: B1 heavy with W254Y, Q258T, L259P, V305A, V310P
# light: not shown
# notes: EU numbering; copies: 2 + 2
# B48: IgG1-F104 (antibody)
# heavy: B1 heavy with W254Y, Q258T, L259P, D267A, V310P
# light: not shown
# notes: EU numbering; copies: 2 + 2
# B49: IgG1-F172 (antibody)
# heavy: B1 heavy with Q258T, L259P, K319A
# light: not shown
# notes: EU numbering; copies: 2 + 2
# B50: IgG1-F130 (antibody)
# heavy: B1 heavy with W254Y, Q258T, L259P, V310M
# light: not shown
# notes: EU numbering; label printed 'F130' between F149 and F152 (perhaps F150); copies: 2 + 2
# B51: IgG1-F107 (antibody)
# heavy: B1 heavy with W254Y, Q258T, L259P, V310P, D378A
# light: not shown
# notes: EU numbering; copies: 2 + 2
# B52: IgG1-F113 (antibody)
# heavy: B1 heavy with W254Y, Q258T, L259P, V310P, E384A
# light: not shown
# notes: EU numbering; copies: 2 + 2
# B53: IgG1-F162 (antibody)
# heavy: B1 heavy with Q258T, L259P, M430Y
# light: not shown
# notes: EU numbering; copies: 2 + 2
# B54: IgG1-F142 (antibody)
# heavy: B1 heavy with W254Y, Q258T, L259P, D272F, V310P
# light: not shown
# notes: EU numbering; copies: 2 + 2
# B55: IgG1-F170 (antibody)
# heavy: B1 heavy with Q258T, L259P, Q313A
# light: not shown
# notes: EU numbering; copies: 2 + 2
# B56: IgG1-F179 (antibody)
# heavy: B1 heavy with Q258T, L259P, N327G
# light: not shown
# notes: EU numbering; copies: 2 + 2
# B57: IgG1-F112 (antibody)
# heavy: B1 heavy with W254Y, Q258T, L259P, V310P, E382A
# light: not shown
# notes: EU numbering; copies: 2 + 2
# B58: IgG1-F135 (antibody)
# heavy: B1 heavy with W254M, Q258T, L259S, M430L
# light: not shown
# notes: EU numbering; copies: 2 + 2
# B59: IgG1-F147 (antibody)
# heavy: B1 heavy with W254Y, Q258T, L259P, V310I
# light: not shown
# notes: EU numbering; copies: 2 + 2
# B60: IgG1-F134 (antibody)
# heavy: B1 heavy with W254M, Q258T, L259N, M430L
# light: not shown
# notes: EU numbering; copies: 2 + 2
# Target: T1, human FcRn (soluble human FcRn complexed with β2-microglobulin) (human, UniProt P61769 21-119, limits assumed)
# T1 construct: also called hFcRn
# Test: SPR, pH 7.0;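 note: antibodies captured on a Protein L sensor chip with human FcRn injected as analyte, KD calculated from fitted association and dissociation rate constants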
row,Kd [µM],Binder
1,0.11,B1
2,0.29,B2
3,0.42,B3
4,0.29,B4
5,0.85,B5
6,0.03,B6
7,0.32,B7
8,0.035,B8
9,0.29,B9
10,0.28,B10
11,0.18,B11
12,0.46,B12
13,0.2,B13
14,0.12,B14
15,0.15,B15
16,0.038,B16
17,0.37,B17
18,0.21,B18
19,0.024,B19
20,0.015,B20

row,Kd [µM],Binder
1,0.34,B21
2,0.17,B22
3,0.044,B23
4,0.29,B24
5,0.044,B25
6,0.059,B26
7,0.19,B27
8,0.032,B28
9,0.27,B29
10,0.41,B30
11,0.063,B31
12,0.15,B32
13,0.77,B33
14,3,B34
15,0.015,B35
16,0.38,B36
17,0.27,B37
18,0.036,B38
19,0.075,B39
20,0.053,B40

row,Kd [µM],Binder
1,0.27,B41
2,0.032,B42
3,0.29,B43
4,0.041,B44
5,0.19,B45
6,0.22,B46
7,0.037,B47
8,0.037,B48
9,0.22,B49
10,0.2,B50
11,0.034,B51
12,0.032,B52
13,0.16,B53
14,0.037,B54
15,0.17,B55
16,0.31,B56
17,0.064,B57
18,0.75,B58
19,0.24,B59
20,0.27,B60
